In assay [1] the target is SARS-CoV-2 Receptor Binding Domain (RBD) protein (SARS-CoV-2, UniProt P0DTC2 319-541).
Assay [2] addresses T1, SARS-CoV-1 Receptor Binding Domain (RBD) protein (SARS-CoV-1, UniProt P59594 306-527).
T1 construct: also called SARS1
Nature of the assay: SPR; clone listed as COV2 only at the 21st table, row 61, column 3.

For assay [3], the target named is T2, MERS Receptor Binding Domain (RBD) protein (MERS virus, UniProt K9N5Q8 367-606).
T2 construct: also called Middle East Respiratory Syndrome (MERS) virus
T2 sequence: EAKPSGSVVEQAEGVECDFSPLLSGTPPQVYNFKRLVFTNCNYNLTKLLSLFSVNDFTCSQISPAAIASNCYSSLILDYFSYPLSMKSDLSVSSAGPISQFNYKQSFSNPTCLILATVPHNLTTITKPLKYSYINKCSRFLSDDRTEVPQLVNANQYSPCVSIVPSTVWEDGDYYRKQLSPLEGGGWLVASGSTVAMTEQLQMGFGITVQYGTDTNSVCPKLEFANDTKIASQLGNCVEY
Described as above.

Assay [4] has as its target T1, SARS-CoV-1 Receptor Binding Domain …. Nature of the assay: SPR; clone listed as COV2 only at the 21st table, row 65, column 3.
Assay [5] deals with T2, MERS Receptor Binding Domain (RBD) …. The description is as above.
The target of assay [6] is T1, SARS-CoV-1 Receptor Binding Domain …. Nature of the assay: SPR; clone listed as COV2 only at the 21st table, row 64, column 3.
In assay [7] the target is T2, MERS Receptor Binding Domain (RBD) …. The assay is described as above.
Assay [8] addresses T1, SARS-CoV-1 Receptor Binding Domain …. Nature of the assay: SPR; clone listed as COV2 only at the 21st table, row 63, column 3.
The target in assay [9] is T2, MERS Receptor Binding Domain (RBD) …. The description is as above.
The target in assay [10] is T1, SARS-CoV-1 Receptor Binding Domain …. Put plainly: SPR; clone listed as COV2 only at the 21st table, row 13, column 3.
For assay [11], the target named is T2, MERS Receptor Binding Domain (RBD) …. The description is as above.
For assay [12], the target named is T1, SARS-CoV-1 Receptor Binding Domain …. Nature of the assay: SPR; clone listed as COV2 only at the 21st table, row 57, column 3.
The target of assay [13] is T2, MERS Receptor Binding Domain (RBD) …. Described as above.
Assay [14] concerns the target T1, SARS-CoV-1 Receptor Binding Domain …. Nature of the assay: SPR; clone listed as COV2 only at the 21st table, row 58, column 3.
The target of assay [15] is T2, MERS Receptor Binding Domain (RBD) …. Described as above.
In assay [16] the target is T1, SARS-CoV-1 Receptor Binding Domain …. Nature of the assay: SPR; clone listed as COV2 only at the 21st table, row 60, column 3.
Assay [17] has as its target T2, MERS Receptor Binding Domain (RBD) …. The description is as above.
The target in assay [18] is T1, SARS-CoV-1 Receptor Binding Domain …. Nature of the assay: SPR; clone listed as COV2 only at the 21st table, row 56, column 3.
Assay [19] deals with T2, MERS Receptor Binding Domain (RBD) …. Described as above.
Assay [20] addresses T1, SARS-CoV-1 Receptor Binding Domain …. Nature of the assay: SPR; clone listed as COV2 only at the 21st table, row 12, column 3.
In assay [21] the target is T2, MERS Receptor Binding Domain (RBD) …. Described as above.
Assay [22] concerns the target T1, SARS-CoV-1 Receptor Binding Domain …. Put plainly: SPR; clone listed as COV2 only at the 21st table, row 59, column 3.
Assay [23] addresses T2, MERS Receptor Binding Domain (RBD) …. The description is as above.

B1: COVID19_P21_B09 (scFv, V domains shown)
VH: QVQLVQSGAEVKKPGSSVKVSCKASGYTFTGHYMHWVRQAPGQGLEWMGIIYPGDSEARYSQKFQGRVTITADESTSTAYMELSSLRSEDTAVYYCAGGSGISTPMDVWGQGTLVTVSS
VL: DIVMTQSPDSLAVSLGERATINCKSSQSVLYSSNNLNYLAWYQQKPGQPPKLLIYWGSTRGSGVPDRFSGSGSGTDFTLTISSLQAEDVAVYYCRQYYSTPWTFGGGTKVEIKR
Turning to B1, in assay [1], the affinity, expressed as Kd, was 3.71 nM; the koff came to 0.000207 s⁻¹; the association rate constant (kon) worked out at 55900 M⁻¹ s⁻¹. Also, the binding result in [2] is recorded as “no binding (tested: up to 300 nM)”. The binding result in assay [3] is listed as “no binding (tested: up to 300 nM)”.

B2: COVID19_P21_H03 (scFv, V domains shown)
VH: QVQLVQSGAEVKKPGSSVKVSCKASGYTFTNYGINWVRQAPGQGLEWMGWMNPYSGNTGYAQKFQGRVTITADESTSTAYMELSSLRSEDTAVYYCAVLSGISTPMDVWGQGTLVTVSS
VL: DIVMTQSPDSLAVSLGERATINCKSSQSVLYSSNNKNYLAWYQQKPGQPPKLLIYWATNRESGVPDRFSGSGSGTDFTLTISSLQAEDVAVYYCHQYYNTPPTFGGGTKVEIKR
In [1], B2 returned a Kd of 11.6 nM, an off-rate constant (koff) of 0.00113 s⁻¹ and an on-rate constant (kon) of 97200 M⁻¹ s⁻¹. Moreover, in assay [4], the binding result is “no binding (tested: up to 300 nM)”. Besides, the binding result in [5] was “no binding (tested: up to 300 nM)”.

B3: COVID19_P21_E04 (scFv, V domains shown)
VH: QVQLVQSGAEVKKPGSSVKVSCKASGYTFTNYGINWMRQAPGQGLEWMGWMNPNSGNTGYAQKFQGRVTITADESTSTAYMELSSLRSEDTAVYYCAGGSGISTPMDVWGQGTLVTVSS
VL: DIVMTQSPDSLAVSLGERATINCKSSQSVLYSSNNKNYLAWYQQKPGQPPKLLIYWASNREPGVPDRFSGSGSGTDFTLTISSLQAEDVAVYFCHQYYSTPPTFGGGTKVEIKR
In [1], B3 gave a Kd of 2.15 nM, an off-rate (koff) of 0.000588 s⁻¹ and a kon of 273000 M⁻¹ s⁻¹. Moreover, in assay [6], the binding result is “no binding (tested: up to 300 nM)”. The binding result in assay [7] is listed as “no binding (tested: up to 300 nM)”.

B4: COVID19_P21_B02 (scFv, V domains shown)
VH: QVQLVQSGAEVKKPGSSVKVSCKASGYTFTNYGINWVRQAPGQGLEWMGWMNPNSGNTGYAQKFQGRVTITADESTSTAYMELSSLRSEDTAVYYCAAVSGISTPMDVWGQGTLVTVSS
VL: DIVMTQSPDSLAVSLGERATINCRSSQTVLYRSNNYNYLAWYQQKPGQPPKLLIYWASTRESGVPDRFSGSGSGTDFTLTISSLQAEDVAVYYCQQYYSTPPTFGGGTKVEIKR
B4: in assay [1], binding was characterised by a dissociation constant (Kd) of 45.5 nM, the koff worked out at 0.0127 s⁻¹ and the on-rate constant (kon) was 278000 M⁻¹ s⁻¹. In addition, the binding result in [8] is recorded as “no binding (tested: up to 300 nM)”. Moreover, the binding result in [9] is listed as “no binding (tested: up to 300 nM)”.

B5: COVID19_P21_E12 (scFv, V domains shown)
VH: QVQLVQSGAEVKKPGSSVKVSCKASGGTFISYAISWVRQAPGQGLEWMGGIIPTLGTYNYAQKFQGRVTITADESTSTAYMELSSLRSEDTAVYYCAGSWGISTPMDVWGQGTLVTVSS
VL: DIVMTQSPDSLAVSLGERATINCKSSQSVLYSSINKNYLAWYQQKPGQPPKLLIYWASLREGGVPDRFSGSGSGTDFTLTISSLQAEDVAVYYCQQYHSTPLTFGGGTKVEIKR
notes: also called COVID19_P21_El2
As to B5, in [1], binding was put at a Kd of 8.82 nM, the koff was determined as 0.000586 s⁻¹ and the kon worked out at 66500 M⁻¹ s⁻¹. Further, the binding result in assay [10] is recorded as “no binding (tested: up to 300 nM)”. The binding result in assay [11] is listed as “no binding (tested: up to 300 nM)”.

B6: COVID19_P09_C05 (scFv, V domains shown)
VH: QVQLVQSGAEVKKPGSSVKVSCKASGYSFSDYYIHWVRQAPGQGLEWMGWIDPNSGGTNYAQKFQGRVTITADESTSTAYMELSSLRSEDTAVYYCAGGSGISTPMDVWGQGTLVTVSS
VL: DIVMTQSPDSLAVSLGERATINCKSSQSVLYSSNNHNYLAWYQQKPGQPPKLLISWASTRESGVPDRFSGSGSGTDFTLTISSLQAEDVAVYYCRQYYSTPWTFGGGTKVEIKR
As for B6, in assay [1], the Kd is 1.18 nM, the koff was 0.000185 s⁻¹ and the kon came to 157000 M⁻¹ s⁻¹. In addition, in assay [12], the binding result is “no binding (tested: up to 300 nM)”. In addition, in [13], the binding result is “no binding (tested: up to 300 nM)”.

B7: COVID19_P09_B10 (scFv, V domains shown)
VH: QVQLVQSGAEVKKPGSSVKVSCKASGYSFTDYHIHWVRQAPGQGLEWMAMIVPRGGSTTYAQKFQGRVTITADESTSTAYMELSSLRSEDTAVYYCAGGSGISTPMDVWGQGTLVTVSS
VL: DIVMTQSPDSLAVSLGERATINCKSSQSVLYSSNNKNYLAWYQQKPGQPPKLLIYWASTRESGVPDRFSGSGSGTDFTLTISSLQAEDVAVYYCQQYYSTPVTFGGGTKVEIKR
In [1], B7 came in with a Kd of 39.7 nM, a koff of 0.00323 s⁻¹ and an on-rate (kon) of 81400 M⁻¹ s⁻¹. Besides, the binding result in assay [14] is listed as “no binding (tested: up to 300 nM)”. Besides, in assay [15], the binding result was “no binding (tested: up to 300 nM)”.

B8: COVID19_P10_A09 (scFv, V domains shown)
VH: QVQLVQSGAEVKKPGSSVKVSCKASGYTFTDYYIHWVRQAPGQGLEWMGWMNPNSGNTGYAQNFQGRVTITADESTSTAYMELSSLRSEDTAVYYCAGGSGISTAWDVWGQGTLVTVSS
VL: DIVMTQSPDSLAVSLGERATIRCTSSLSLQDRSNNKNYLTWYQQKPGQPPKLLIYWASTRESGVPDRFSGSGSGTDFTLTISSLQAEDVAVYYCQQHYSAPLTFGGGTKVEIKR
On to B8, for which, in assay [1], the Kd was determined as 20.5 nM, the off-rate (koff) amounted to 0.00112 s⁻¹ and the kon was found to be 54800 M⁻¹ s⁻¹. In addition, the binding result in [16] was “no binding (tested: up to 300 nM)”. In addition, the binding result in assay [17] is “no binding (tested: up to 300 nM)”.

B9: COVID19_P10_B10 (scFv, V domains shown)
VH: QVQLVQSGAEVKKPGSSVKVSCKASGYSFSDYHVHWVRQAPGQGLEWVGMIIPRHGGTAYAQKFQGRVTITADESTSTAYMELSSLRSEDTAVYYCAGGSGISTPMDVWGQGTLVTVSS
VL: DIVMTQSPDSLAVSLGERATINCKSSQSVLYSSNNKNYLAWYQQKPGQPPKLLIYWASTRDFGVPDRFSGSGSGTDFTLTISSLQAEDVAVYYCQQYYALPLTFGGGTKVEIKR
In assay [1], B9 registered an equilibrium dissociation constant (Kd) of 46.2 nM, a koff of 0.014 s⁻¹ and a kon of 302000 M⁻¹ s⁻¹. Further, the binding result in [18] is listed as “no binding (tested: up to 300 nM)”. In addition, the binding result in assay [19] was “no binding (tested: up to 300 nM)”.

B10: COVID19_P22_H10 (scFv, V domains shown)
VH: QVQLVQSGAEVKKPGSSVKVSCKASGGGFSTYWIGWVRQAPGQGLEWVGWINPNSGATKYAQKFQGRVTITADESTSTAYMELSSLRSEDTAVYYCAGGSGISTPMDVWGQGTLVTVSS
VL: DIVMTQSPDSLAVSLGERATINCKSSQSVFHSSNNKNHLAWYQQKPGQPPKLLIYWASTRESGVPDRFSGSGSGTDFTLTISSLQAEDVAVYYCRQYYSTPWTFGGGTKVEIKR
In [1], B10 had a dissociation constant Kd of 7.59 nM, a koff of 0.00057 s⁻¹ and a kon of 75000 M⁻¹ s⁻¹. Moreover, in [20], the binding result is recorded as “no binding (tested: up to 300 nM)”. Also, the binding result in assay [21] is recorded as “no binding (tested: up to 300 nM)”.

B11: COVID19_P21_B01 (scFv, V domains shown)
VH: QVQLVQSGAEVKKPGSSVKVSCKASGYTFSTYWIGWVRQAPGQGLEWMGWIDPNSGGTNYAQKFQGRVTITADESTSTAYMELSSLRSEDTAVYYCAGGSGISTPMDVWGQGTLVTVSS
VL: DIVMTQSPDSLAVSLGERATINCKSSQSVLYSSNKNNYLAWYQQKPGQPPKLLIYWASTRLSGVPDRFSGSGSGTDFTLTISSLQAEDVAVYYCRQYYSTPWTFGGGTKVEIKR
In assay [1], B11 had a dissociation constant (Kd) of 0.91 nM, an off-rate constant (koff) of 5.7e-05 s⁻¹ and an association rate constant (kon) of 62400 M⁻¹ s⁻¹. For the same molecule, the binding result in assay [22] is recorded as “no binding (tested: up to 300 nM)”. In addition, the binding result in assay [23] is recorded as “no binding (tested: up to 300 nM)”.
